Consider 1 protein from FireProtDB (doi:10.1074/jbc.271.51.32729).

The conditions of this data set: Escherichia coli (strain K12), Thermal, CD, reversible: yes, whole UniProt chain shown.

B1: Ribonuclease HI wild type, P0A7Y4 (protein)
chain: MLKQVEIFTDGSCLGNPGPGGYGAILRYRGREKTFSAGYTRTTNNRMELMAAIVALEALKEHCEVILSTDSQYVRQGITQWIHNWKKRGWKTADKKPVKNVDLWQRLDAALGQHQIKWEWVKGHAGHPENERCDELARAAAMNPTLEDTGYQVEV
In general, Tm refers to the temperature at which the thermal transition is half complete. Consider B1, for which, for the setting “pH 3, glycine-HCl 10 mM”, the Tm worked out at 50 °C and the “unfolding enthalpy (van 't Hoff)” value is 95.1 kcal/mol. For the same protein, for the setting “pH 9, glycine-NaOH 50 mM”, the Tm stood at 47 °C.
